The source of these data is patent US9328139B2, “Cyclin based inhibitors of CDK2 and CDK4” (University of South Carolina, priority 2010, dated 2016).

Read-outs that look alike come from different tables or passages of the source.

Experiment [1] relates to retinoblastoma (Rb)-positive tumor cells. Conditions: cited from earlier work.
Another experiment addresses T1, CDK4/Cyclin D1 (Homo sapiens, UniProt P24385).
T1 construct: performed using full-length recombinant CDK2/cyclin A2 and CDK4/Cyclin D1; GST (N); purchased SignalChem, Richmond, Canada; host or cells: Sf9 insect cells (baculovirus)
Kind of experiment: CDK4/Cyclin D1 in vitro kinase assay (32P filter capture, GST-Rb substrate). It counts as biochemical. On the procedure:
CDK2/Cyclin A2 and CDK4/Cyclin D1 kinase assays were performed using full-length recombinant CDK2/cyclin A2 and CDK4/Cyclin D1 co-expressed by baculovirus in Sf9 insect cells using an N-terminal GST tag on both proteins. […] The [^32P]-ATP Assay cocktail was prepared in a designated radioactive working area by adding 150 ul of 10 mM ATP stock solution, 100 ul[^32P]-ATP (1 mCi/100 ul), 5.75 ml of kinase assay buffer I. 10 mM ATP Stock Solution was prepared by dissolving 55 mg of ATP in 10 ml of kinase assay buffer I. Store 200 μl aliquots at −20° C. […] The reaction was initiated by the addition of 5 μl [^32P]-ATP assay cocktail bringing the final volume up to 25 μl and incubating the mixture in a water bath at 30° C. for 15 minutes. After the incubation period, the reaction was terminated by spotting 20 μl of the reaction mixture onto individual pre-cut strips of phophocellulose P81 paper. The pre-cut P81 strip was air-dried and sequentially washed in a 1% phosphoric acid solution with constant gentle stirring. Radioactivity on the P81 paper was counted in the presence of scintillation fluid on a scintillation counter. […]
Activities of peptides previously tested against CDK2A and CDK4D were determined using this assay format.

T1 sequence (P24385 whole entry): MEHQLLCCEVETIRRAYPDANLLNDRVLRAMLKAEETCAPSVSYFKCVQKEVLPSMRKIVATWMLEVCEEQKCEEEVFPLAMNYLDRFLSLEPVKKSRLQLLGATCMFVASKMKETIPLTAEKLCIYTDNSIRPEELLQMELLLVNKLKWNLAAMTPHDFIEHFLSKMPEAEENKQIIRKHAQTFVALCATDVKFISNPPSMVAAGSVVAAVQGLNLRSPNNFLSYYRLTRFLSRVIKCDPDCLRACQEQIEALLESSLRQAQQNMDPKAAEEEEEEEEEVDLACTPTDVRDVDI
T1 sequence (P11802 whole entry partner): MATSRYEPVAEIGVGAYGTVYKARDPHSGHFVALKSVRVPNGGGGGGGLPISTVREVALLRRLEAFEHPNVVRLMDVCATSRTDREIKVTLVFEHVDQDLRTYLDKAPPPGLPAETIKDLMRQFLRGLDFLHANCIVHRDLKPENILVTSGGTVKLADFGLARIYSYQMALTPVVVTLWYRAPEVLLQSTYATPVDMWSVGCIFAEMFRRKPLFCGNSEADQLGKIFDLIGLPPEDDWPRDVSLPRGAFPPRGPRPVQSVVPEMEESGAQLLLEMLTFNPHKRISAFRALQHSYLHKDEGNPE

With `CC(=O)c1c(C)c2cnc(Nc3ccc(N4CCNCC4)cn3)nc2n(C2CCCC2)c1=O` [PD0332991], in experiment [1], the cell cycle effect entry was “G1 arrest”.
Turning to “HAKRRLIX8: HAKRRLIX with X8 = 4-pyridylalanine, SEQ ID NO: 24”, the “activity in the CDK4/cyclin D1 kinase assay (in words)” value in the experiment with CDK4/Cyclin D1 is reported as “no observable activity”; in the experiment with CDK4/Cyclin D1 (listed as p21 X8 derivative), “loses all activity”.
